Measurements from paper PMC12638309.

T1: Mam2, fungal peptide-sensing GPCR (P-factor) (UniProt Q00619)
T1 sequence: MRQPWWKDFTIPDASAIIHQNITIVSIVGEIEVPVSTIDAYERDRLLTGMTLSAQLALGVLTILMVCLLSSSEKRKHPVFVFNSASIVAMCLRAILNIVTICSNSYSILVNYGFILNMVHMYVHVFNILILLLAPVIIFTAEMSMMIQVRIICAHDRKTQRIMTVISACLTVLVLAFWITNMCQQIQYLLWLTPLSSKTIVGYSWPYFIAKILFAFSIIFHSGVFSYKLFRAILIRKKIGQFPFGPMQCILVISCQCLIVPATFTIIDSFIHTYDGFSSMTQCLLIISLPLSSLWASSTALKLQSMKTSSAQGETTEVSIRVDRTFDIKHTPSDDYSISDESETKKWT

T2: Ste2, native ɑ-factor pheromone-sensing mating GPCR (S. cerevisiae) (UniProt D6VTK4)
T2 sequence: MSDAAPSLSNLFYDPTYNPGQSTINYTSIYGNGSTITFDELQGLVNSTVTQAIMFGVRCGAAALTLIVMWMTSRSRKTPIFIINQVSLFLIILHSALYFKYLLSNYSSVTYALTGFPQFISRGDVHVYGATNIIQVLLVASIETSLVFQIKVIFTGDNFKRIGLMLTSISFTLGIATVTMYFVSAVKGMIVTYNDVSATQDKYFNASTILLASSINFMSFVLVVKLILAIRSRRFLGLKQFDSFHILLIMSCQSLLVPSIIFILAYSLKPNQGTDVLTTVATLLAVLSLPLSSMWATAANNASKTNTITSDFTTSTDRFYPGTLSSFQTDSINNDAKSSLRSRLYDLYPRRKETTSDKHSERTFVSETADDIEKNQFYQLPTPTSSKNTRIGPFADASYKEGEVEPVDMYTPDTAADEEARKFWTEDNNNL


How the values were obtained:
[1] = target: T1, Mam2, fungal peptide-sensing GPCR (P-factor)
[2] = target: T2, Ste2, native ɑ-factor pheromone-sensing mating GPCR (S. cerevisiae)
[3] = target: T2, Ste2, native ɑ-factor pheromone-sensing mating GPCR (S. cerevisiae); remark: listed apart in the source

fold change of surface-displayed CD19 (P FUS1-CD19 output of the pheromone response pathway, flow cytometry) in yeast expressing Mam2 (DIX60), 0, 1 and 10 µM P-factor, 20 h, pH 5 [1] [fold]	fold change of surface-displayed CD19 (P FUS1-CD19 output of the pheromone response pathway, flow cytometry) in yeast expressing Ste2 (DIX45), 0, 0.01 and 1 µM ɑ-factor, 20 h, pH 5 [2] [fold]	fold up-regulation of surface-displayed CD19 from P FIG1 in Ste2 yeast, 0-100 µM ɑ-factor, 20 h [3] [fold]	fold up-regulation of surface-displayed CD19 from P FUS1 in Ste2 yeast, 0-100 µM ɑ-factor, 20 h [3] [fold]	fold up-regulation of surface-displayed CD19 from P MFA2 in Ste2 yeast, 0-100 µM ɑ-factor, 20 h [3] [fold]	fold up-regulation of surface-displayed CD19 from P TDH3 (pheromone response pathway boost) in Ste2 yeast, 0-100 µM ɑ-factor, 20 h [3] [fold]	Binder
249	–	–	–	–	–	TYADFLRAYQSWNTFVNPDRPNL [P-factor]
–	312	630	774	323	3.1	WHWLQLKPGQPMY [ɑ-factor]
